# Reference: article PMC7829508, “Binding of Campylobacter jejuni FliW Adjacent to the CsrA RNA-Binding Pockets Modulates CsrA Regulatory Activity” (Frontiers in Microbiology, 2020)
# Where a chain is given by its changes, count along the chain named. Names and notes keep the numbering of the source.
# B1: CsrA-WT-His6 (natural protein, C. jejuni 81-176, UniProt P0DPD4 1-75, looked up)
# chain: MLILSRKENESIIIGEGIEIKVVQTGKGYAKIGIEAPKSLMILRKELVQQVKDENLHSVVQNDIKLDDLSKKLIK
# notes: CsrA of Campylobacter jejuni, 75 amino acids; csrA cloned into pET-20b(+) (pET-20b-CsrA-His6, Fields et al., 2016); also called CsrA-His6; source: purified as described previously (El Abbar et al., 2019); not shown: His6, C-terminal, kept
# B2: CsrA-V51A-His6 (natural protein, C. jejuni 81-176, UniProt P0DPD4 1-75, looked up)
# chain: B1 chain with V51A
# notes: CsrA of Campylobacter jejuni, 75 amino acids, with V51A; point mutation cloned into pET20b (El Abbar et al., 2019); source: purified as described previously (El Abbar et al., 2019); not shown: His6, C-terminal, kept
# Legend:
# FliW-His6 (C. jejuni) = FliW-His6 (C. jejuni) (UniProt Q0P9H9); assay: SPR; BIAcore T100; FliW-His6 amine-coupled to CM5 chip; CsrA-His6 injected at 0-500 nM, 30 μL/min, 180 s association, 600 s dissociation; 20 mM phosphate buffer, 0.05% Tween 20, pH 7.4; bivalent analyte model, constant of the first binding event (KD1)
# FliW-His6 = biological target: T1, FliW-His6 (C. jejuni, UniProt Q0P9H9 1-129); assay: as above; conditions: both partners purified
# T1 construct: FliW of Campylobacter jejuni, fliW cloned into pET-20b(+) (pET-20b-FliW-His6, Li et al., 2018); also called C. jejuni FliW
# T1 sequence (looked up): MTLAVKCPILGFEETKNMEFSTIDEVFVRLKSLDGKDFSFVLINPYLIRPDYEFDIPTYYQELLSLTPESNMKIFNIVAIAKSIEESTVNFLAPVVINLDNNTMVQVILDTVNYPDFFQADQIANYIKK
molecule,measurement,setting,value
CsrA-N55A-His6 (from UniProt P0DPD4 1-75) (natural protein),"KD of the first ligand binding site (KD1, bivalent analyte model)",FliW-His6 (C. jejuni),93 nM
B1,"KD of the first ligand binding site (KD1, bivalent analyte model)",FliW-His6,9 nM
B2,"KD of the first ligand binding site (KD1, bivalent analyte model)",FliW-His6,52 nM
